T1: zinc-binding anti-sigma (ZAS) protein RsrA (S. coelicolor M145, UniProt Q7AKG8 1-105)
T1 chain: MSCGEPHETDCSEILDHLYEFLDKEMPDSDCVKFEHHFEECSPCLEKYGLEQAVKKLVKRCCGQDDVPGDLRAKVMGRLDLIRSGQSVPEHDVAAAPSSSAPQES

T2: rsrA-cfp-pET28a (+) protein (RCP) (S. coelicolor M145, UniProt Q7AKG8 1-105)
T2 chain: T1 chain

B1: sigR-yfp-pET28a (+) protein (SYP) (natural protein)
chain: not shown
modifications: biotinylated for the biolayer interferometry only
B2: sigma factor σ^R (natural protein)
chain: not shown
modifications: biotinylated before capture on streptavidin biosensor tips

Experiments:
[1] = target: T1, zinc-binding anti-sigma (ZAS) protein …; assay: BLI
[2] = target: T2, rsrA-cfp-pET28a (+) protein (RCP); assay: BLI

Binder	Kd [1] [nM]	Kd [2] [nM]
B1	52	–
B2	47	72

Reference: publication PMC3961337 (2014)
